Measurements as given in patent publication US20210388110A1 (published 2021).
Residue numbers refer to the chain shown, from its start.

B1: H0610-G1dh/none-Hi-Kn010G3/L0211-k0 (antibody, human IgG1, kappa)
heavy: not shown
chain: EPKSSDKTHTCPPCPAPELLGGPSVFLFPPKPKDTLMISRTPEVTCVVVDVSHEDPEVKFNWYVDGVEVHNAKTKPREEQYNSTYRVVSVLTVLHQDWLNGKEYKCKVSNKALPAPIEKTISKAKGQPREPQVCTLPPSRDELTKNQVSLWCLVKGFYPSDIAVEWESNGQPENNYKTTPPVLDSDGSFFLYSKLTVDKSRWQQGNVFSCSVMHEALHNRYTQKSLSLSP
light: DIVMTQSPLSLPVTPGEPASISCRSSQPPVHSNRNTYLHWYQQKPGQAPRLLIYKVSNRFSGVPDRFSGSGSGTDFTLKISRVEAEDVGVYYCYQGTQVPYTFGQGTKLEIKRTVAAPSVFIFPPSDEQLKSGTASVVCLLNNFYPREAKVQWKVDNALQSGNSQESVTEQDSKDSTYSLSSTLTLSKADYEKHKVYACEVTHQGLSSPVTKSFNRGEC
notes: single-arm (one Fab)
B2: H0610-G1dh/none-Hi-Kn010G3/L0226-k0 (antibody, human IgG1, kappa)
heavy: not shown
chain: B1 chain
light: B1 light with P28S, L38I, Y94I
notes: single-arm (one Fab)
B3: H0610-G1dh/none-Hi-Kn010G3/L0222-k0 (antibody, human IgG1, kappa)
heavy: not shown
chain: B1 chain
light: B1 light with P28S, L38I, H39Q
notes: single-arm (one Fab)
B4: H0610-G1dh/none-Hi-Kn010G3/L0239-k0 (antibody, human IgG1, kappa)
heavy: not shown
chain: B1 chain
light: B1 light with Q27E, P28S, S61R, Y94G
notes: single-arm (one Fab)
B5: H0610-G1dh/none-Hi-Kn010G3/L0233-k0 (antibody, human IgG1, kappa)
heavy: not shown
chain: B1 chain
light: B1 light with P28E, P29L, Y94G
notes: single-arm (one Fab)
B6: H0610-G1dh/none-Hi-Kn010G3/L0242-k0 (antibody, human IgG1, kappa)
heavy: not shown
chain: B1 chain
light: B1 light with Q27E, P28S, L38I
notes: single-arm (one Fab)
B7: H0610-G1dh/none-Hi-Kn010G3/L0238-k0 (antibody, human IgG1, kappa)
heavy: not shown
chain: B1 chain
light: B1 light with Q27E
notes: single-arm (one Fab)
B8: H0610-G1dh/none-Hi-Kn010G3/L0231-k0 (antibody, human IgG1, kappa)
heavy: not shown
chain: B1 chain
light: B1 light with P28S, L38I, V99W
notes: single-arm (one Fab)
B9: H0610-G1dh/none-Hi-Kn010G3/L0215-k0 (antibody, human IgG1, kappa)
heavy: not shown
chain: B1 chain
light: B1 light with L38I, Y94G
notes: single-arm (one Fab)
B10: H0610-G1dh/none-Hi-Kn010G3/L0213-k0 (antibody, human IgG1, kappa)
heavy: not shown
chain: B1 chain
light: B1 light with P28S, L38I, S61R, Y94G
notes: single-arm (one Fab)
B11: H0610-G1dh/none-Hi-Kn010G3/L0248-k0 (antibody, human IgG1, kappa)
heavy: not shown
chain: B1 chain
light: B1 light with S25P, P28S, L38I, H39Q
notes: single-arm (one Fab)
B12: H0610-G1dh/none-Hi-Kn010G3/L0212-k0 (antibody, human IgG1, kappa)
heavy: not shown
chain: B1 chain
light: B1 light with S25P, P28S
notes: single-arm (one Fab)
B13: H0610-G1dh/none-Hi-Kn010G3/L0259-k0 (antibody, human IgG1, kappa)
heavy: not shown
chain: B1 chain
light: B1 light with P28S, L38I, Y94T
notes: single-arm (one Fab)
B14: H0610-G1dh/none-Hi-Kn010G3/L0219-k0 (antibody, human IgG1, kappa)
heavy: not shown
chain: B1 chain
light: B1 light with P28S, P29L, L38I, S61R, Y94G
notes: single-arm (one Fab)
B15: H0610-G1dh/none-Hi-Kn010G3/L0218-k0 (antibody, human IgG1, kappa)
heavy: not shown
chain: B1 chain
light: B1 light with P28S, P29L, S61R
notes: single-arm (one Fab)
B16: H0610-G1dh/none-Hi-Kn010G3/L0217-k0 (antibody, human IgG1, kappa)
heavy: not shown
chain: B1 chain
light: B1 light with S25P, P28S, P29L, S61R, Y94G
notes: single-arm (one Fab)
B17: H0610-G1dh/none-Hi-Kn010G3/L0214-k0 (antibody, human IgG1, kappa)
heavy: not shown
chain: B1 chain
light: B1 light with S61R, Y94G
notes: single-arm (one Fab)
B18: H0610-G1dh/none-Hi-Kn010G3/L0249-k0 (antibody, human IgG1, kappa)
heavy: not shown
chain: B1 chain
light: B1 light with S25P, P28S, L38I, H39Q, Y94S
notes: single-arm (one Fab)
B19: H0610-G1dh/none-Hi-Kn010G3/L0230-k0 (antibody, human IgG1, kappa)
heavy: not shown
chain: B1 chain
light: B1 light with P28S, L38I, G96T
notes: single-arm (one Fab)
B20: H0610-G1dh/none-Hi-Kn010G3/L0223-k0 (antibody, human IgG1, kappa)
heavy: not shown
chain: B1 chain
light: B1 light with P28S, L38I, F60L
notes: single-arm (one Fab)
B21: H0610-G1dh/none-Hi-Kn010G3/L0216-k0 (antibody, human IgG1, kappa)
heavy: not shown
chain: B1 chain
light: B1 light with P29L, S61R, Y94G
notes: single-arm (one Fab)
B22: H0610-G1dh/none-Hi-Kn010G3/L0243-k0 (antibody, human IgG1, kappa)
heavy: not shown
chain: B1 chain
light: B1 light with Q27E, S61R, Y94G
notes: single-arm (one Fab)
B23: H0610-G1dh/none-Hi-Kn010G3/L0240-k0 (antibody, human IgG1, kappa)
heavy: not shown
chain: B1 chain
light: B1 light with Q27E, P28S
notes: single-arm (one Fab)
B24: H0610-G1dh/none-Hi-Kn010G3/L0246-k0 (antibody, human IgG1, kappa)
heavy: not shown
chain: B1 chain
light: B1 light with P28S, L38I, H39Q, Y94S
notes: single-arm (one Fab)
B25: H0610-G1dh/none-Hi-Kn010G3/L0258-k0 (antibody, human IgG1, kappa)
heavy: not shown
chain: B1 chain
light: B1 light with Y94T
notes: single-arm (one Fab)
B26: H0610-G1dh/none-Hi-Kn010G3/L0224-k0 (antibody, human IgG1, kappa)
heavy: not shown
chain: B1 chain
light: B1 light with P28S, L38I, S61P
notes: single-arm (one Fab)
B27: H0610-G1dh/none-Hi-Kn010G3/L0229-k0 (antibody, human IgG1, kappa)
heavy: not shown
chain: B1 chain
light: B1 light with P28S, L38I, G96S
notes: single-arm (one Fab)
B28: H0610-G1dh/none-Hi-Kn010G3/L0234-k0 (antibody, human IgG1, kappa)
heavy: not shown
chain: B1 chain
light: B1 light with P28E, S61R, Y94G
notes: single-arm (one Fab)
B29: H0610-G1dh/none-Hi-Kn010G3/L0228-k0 (antibody, human IgG1, kappa)
heavy: not shown
chain: B1 chain
light: B1 light with P28S, L38I, Y94V
notes: single-arm (one Fab)
B30: H0610-G1dh/none-Hi-Kn010G3/L0237-k0 (antibody, human IgG1, kappa)
heavy: not shown
chain: B1 chain
light: B1 light with P28E, L38I
notes: single-arm (one Fab)
B31: H0610-G1dh/none-Hi-Kn010G3/L0261-k0 (antibody, human IgG1, kappa)
heavy: not shown
chain: B1 chain
light: B1 light with P28S, L38I, H39Q, Y94T
notes: single-arm (one Fab)
B32: H0610-G1dh/none-Hi-Kn010G3/L0227-k0 (antibody, human IgG1, kappa)
heavy: not shown
chain: B1 chain
light: B1 light with P28S, L38I, Y94L
notes: single-arm (one Fab)
B33: H0610-G1dh/none-Hi-Kn010G3/L0220-k0 (antibody, human IgG1, kappa)
heavy: not shown
chain: B1 chain
light: B1 light with P29L, S61R
notes: single-arm (one Fab)

Target: T1, soluble human GPC3 (human, UniProt P51654 25-563, limits assumed)
T1 construct: soluble human GPC3 as analyte; also called glypican 3
T1 sequence (P51654 other isoform, or with tags, fused parts or gaps limits assumed, form in doubt): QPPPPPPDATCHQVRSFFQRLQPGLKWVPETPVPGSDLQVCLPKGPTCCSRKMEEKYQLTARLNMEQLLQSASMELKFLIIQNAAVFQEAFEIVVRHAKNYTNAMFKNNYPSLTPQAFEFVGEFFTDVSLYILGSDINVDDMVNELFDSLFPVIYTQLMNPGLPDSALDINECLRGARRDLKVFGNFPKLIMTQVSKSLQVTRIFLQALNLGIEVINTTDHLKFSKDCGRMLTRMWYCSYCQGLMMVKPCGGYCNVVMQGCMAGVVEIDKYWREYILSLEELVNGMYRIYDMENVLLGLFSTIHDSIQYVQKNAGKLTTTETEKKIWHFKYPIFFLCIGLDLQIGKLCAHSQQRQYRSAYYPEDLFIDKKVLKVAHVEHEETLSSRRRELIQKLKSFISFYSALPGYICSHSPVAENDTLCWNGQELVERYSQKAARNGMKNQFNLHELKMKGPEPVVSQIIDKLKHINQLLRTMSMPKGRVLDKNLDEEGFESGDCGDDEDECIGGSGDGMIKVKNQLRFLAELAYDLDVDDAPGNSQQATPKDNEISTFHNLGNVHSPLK
Assay: SPR (Biacore), soluble human GPC3

Row | Binder | Kd [nM]
1 | B1 | 0.647
2 | B2 | 0.093
3 | B3 | 0.00014
4 | B4 | 0.874
5 | B5 | 3.55
6 | B6 | 1.19
7 | B7 | 0.637
8 | B8 | 0.589
9 | B9 | 1.64
10 | B10 | 1.25
11 | B11 | 0.0555
12 | B12 | 0.994
13 | B13 | 0.334
14 | B14 | 2.28
15 | B15 | 1.99
16 | B16 | 1.79
17 | B17 | 0.657

Row | Binder | Kd [nM]
18 | B18 | 0.00686
19 | B19 | 4
20 | B20 | 0.475
21 | B21 | 1.86
22 | B22 | 0.649
23 | B23 | 0.848
24 | B24 | 0.00121
25 | B25 | 0.000352
26 | B26 | 0.243
27 | B27 | 1.2
28 | B28 | 0.778
29 | B29 | 0.202
30 | B30 | 1.31
31 | B31 | 0.0107
32 | B32 | 0.408
33 | B33 | 1.36
